Experimental data: patent US20230250154A1 (CYTONICS, published 2023)

T1: ADAMTS5 (human, UniProt Q9UNA0 262-622, limits assumed)
T1 sequence (looked up): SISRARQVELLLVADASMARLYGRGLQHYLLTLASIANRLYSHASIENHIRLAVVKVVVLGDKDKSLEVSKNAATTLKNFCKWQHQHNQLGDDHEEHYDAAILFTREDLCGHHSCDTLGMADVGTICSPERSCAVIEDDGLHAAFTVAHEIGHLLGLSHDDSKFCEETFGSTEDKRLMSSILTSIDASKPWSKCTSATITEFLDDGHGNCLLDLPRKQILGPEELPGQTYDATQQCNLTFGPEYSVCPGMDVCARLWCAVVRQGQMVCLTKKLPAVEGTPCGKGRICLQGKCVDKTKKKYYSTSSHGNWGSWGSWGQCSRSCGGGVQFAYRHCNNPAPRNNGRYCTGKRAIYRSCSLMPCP

T2: MMP1 (human, UniProt P03956 100-469, limits assumed)
T2 sequence (looked up): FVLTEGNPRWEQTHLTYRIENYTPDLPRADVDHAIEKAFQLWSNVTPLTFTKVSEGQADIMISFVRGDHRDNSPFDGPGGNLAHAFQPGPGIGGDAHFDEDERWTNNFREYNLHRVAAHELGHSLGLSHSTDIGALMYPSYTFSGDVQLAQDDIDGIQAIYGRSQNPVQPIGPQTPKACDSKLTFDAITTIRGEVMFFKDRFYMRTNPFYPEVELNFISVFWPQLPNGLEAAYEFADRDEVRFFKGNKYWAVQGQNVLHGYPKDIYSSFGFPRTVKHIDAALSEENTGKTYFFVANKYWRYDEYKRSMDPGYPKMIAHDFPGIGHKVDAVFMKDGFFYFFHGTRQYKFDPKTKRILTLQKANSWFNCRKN

T3: MMP2 (human, UniProt P08253 110-660, limits assumed)
T3 sequence (looked up): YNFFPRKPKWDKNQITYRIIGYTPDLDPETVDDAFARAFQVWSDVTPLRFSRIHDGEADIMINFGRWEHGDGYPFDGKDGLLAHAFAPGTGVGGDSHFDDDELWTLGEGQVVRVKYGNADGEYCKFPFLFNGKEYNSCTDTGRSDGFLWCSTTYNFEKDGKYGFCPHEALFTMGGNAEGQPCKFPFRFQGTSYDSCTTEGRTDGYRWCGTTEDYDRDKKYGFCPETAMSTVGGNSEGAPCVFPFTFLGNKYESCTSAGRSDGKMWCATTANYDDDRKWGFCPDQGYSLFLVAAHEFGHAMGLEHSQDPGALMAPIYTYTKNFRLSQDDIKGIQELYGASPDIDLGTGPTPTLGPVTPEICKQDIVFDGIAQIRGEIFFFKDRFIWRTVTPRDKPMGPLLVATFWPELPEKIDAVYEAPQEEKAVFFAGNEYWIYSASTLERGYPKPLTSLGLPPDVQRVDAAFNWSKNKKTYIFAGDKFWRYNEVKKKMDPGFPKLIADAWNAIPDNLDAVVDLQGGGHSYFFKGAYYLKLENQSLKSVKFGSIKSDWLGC

T4: Cathepsin G (UniProt P08311 21-244)
T4 sequence (looked up): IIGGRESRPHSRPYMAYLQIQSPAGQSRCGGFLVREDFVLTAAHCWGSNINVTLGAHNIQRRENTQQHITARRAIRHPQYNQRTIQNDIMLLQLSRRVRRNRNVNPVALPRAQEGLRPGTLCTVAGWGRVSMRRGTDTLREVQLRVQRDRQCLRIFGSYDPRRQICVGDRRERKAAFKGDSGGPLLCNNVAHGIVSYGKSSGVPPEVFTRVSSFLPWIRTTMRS

T5: MMP7 (UniProt P09237 95-267, limits assumed)
T5 sequence (looked up): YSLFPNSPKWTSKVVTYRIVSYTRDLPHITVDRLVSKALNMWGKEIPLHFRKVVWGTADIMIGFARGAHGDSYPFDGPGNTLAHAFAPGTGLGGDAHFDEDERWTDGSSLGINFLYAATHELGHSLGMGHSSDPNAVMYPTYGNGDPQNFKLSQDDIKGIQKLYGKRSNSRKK


Columns and labels:
Experiment in all cases: cell-based or functional assay
ADAMTS5 = molecular target: T1, ADAMTS5
MMP1 = molecular target: T2, MMP1
MMP8 = MMP8 (human, UniProt P22894 101-467, limits assumed)
MMP8, sequence (P22894 101-467 limits assumed): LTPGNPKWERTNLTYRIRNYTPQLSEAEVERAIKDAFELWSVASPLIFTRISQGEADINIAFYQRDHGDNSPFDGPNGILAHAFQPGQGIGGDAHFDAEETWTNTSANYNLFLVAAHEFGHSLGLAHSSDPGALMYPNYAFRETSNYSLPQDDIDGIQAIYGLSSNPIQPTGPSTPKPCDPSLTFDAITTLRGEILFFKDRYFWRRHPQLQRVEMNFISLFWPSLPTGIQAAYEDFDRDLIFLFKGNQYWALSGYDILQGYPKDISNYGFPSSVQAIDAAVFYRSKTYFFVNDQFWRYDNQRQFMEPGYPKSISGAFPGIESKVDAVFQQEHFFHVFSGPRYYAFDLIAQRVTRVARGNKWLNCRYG

MMP13 = MMP13 (human, UniProt P45452 104-471, limits assumed)
MMP2 = molecular target: T3, MMP2
MMP9 = MMP9 (human, UniProt P14780 107-707, limits assumed)
MMP9, sequence (P14780 107-707 limits assumed): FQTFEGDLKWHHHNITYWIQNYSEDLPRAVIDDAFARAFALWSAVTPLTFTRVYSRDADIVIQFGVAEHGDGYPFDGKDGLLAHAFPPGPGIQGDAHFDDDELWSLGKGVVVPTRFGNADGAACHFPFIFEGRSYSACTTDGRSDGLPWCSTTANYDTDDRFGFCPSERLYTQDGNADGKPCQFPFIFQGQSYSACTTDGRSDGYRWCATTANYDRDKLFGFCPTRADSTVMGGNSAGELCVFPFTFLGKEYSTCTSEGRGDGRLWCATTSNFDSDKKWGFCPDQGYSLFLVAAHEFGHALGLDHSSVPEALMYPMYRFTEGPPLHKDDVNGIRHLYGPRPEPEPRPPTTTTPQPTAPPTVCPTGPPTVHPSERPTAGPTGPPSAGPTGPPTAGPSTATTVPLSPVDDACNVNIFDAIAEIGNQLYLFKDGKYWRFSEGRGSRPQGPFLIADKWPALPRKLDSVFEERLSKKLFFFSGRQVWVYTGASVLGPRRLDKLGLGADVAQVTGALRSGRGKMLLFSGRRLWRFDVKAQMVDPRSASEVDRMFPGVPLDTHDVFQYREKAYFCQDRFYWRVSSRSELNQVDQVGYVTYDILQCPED

MMP3 = MMP3 (human, UniProt P08254 100-477, limits assumed)
MMP3, sequence (P08254 100-477 limits assumed): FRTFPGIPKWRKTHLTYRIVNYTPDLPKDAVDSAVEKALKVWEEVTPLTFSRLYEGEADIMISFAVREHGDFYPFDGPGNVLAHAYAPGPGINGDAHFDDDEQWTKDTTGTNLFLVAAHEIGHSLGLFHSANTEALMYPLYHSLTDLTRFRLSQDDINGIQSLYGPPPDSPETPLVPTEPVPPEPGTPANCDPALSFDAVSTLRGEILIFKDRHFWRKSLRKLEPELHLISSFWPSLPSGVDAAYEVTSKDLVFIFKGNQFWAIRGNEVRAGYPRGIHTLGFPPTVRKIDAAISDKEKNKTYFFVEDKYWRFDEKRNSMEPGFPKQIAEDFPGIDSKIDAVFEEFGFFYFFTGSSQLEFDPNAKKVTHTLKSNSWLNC

Elastase = molecular target: Elastase
Cathepsin G = molecular target: T4, Cathepsin G
MMP7 = molecular target: T5, MMP7

Protease Inhibition (% of WT) (ADAMTS5) | Protease Inhibition (% of WT) (MMP1) | Protease Inhibition (% of WT) (MMP8) | Protease Inhibition (% of WT) (MMP13) | Protease Inhibition (% of WT) (MMP2) | Protease Inhibition (% of WT) (MMP9) | Protease Inhibition (% of WT) (MMP3) | Protease Inhibition (% of WT) (Elastase) | Protease Inhibition (% of WT) (Cathepsin G) | Protease Inhibition (% of WT) (MMP7) | Binder
305 % of WT | 101 % of WT | 92 % of WT | 104 % of WT | 92 % of WT | 84 % of WT | 180 % of WT | 91 % of WT | 105 % of WT | 105 % of WT | Variant A2M, bait region SEQ ID NO 16 (other) SVSGKPQYMVLVPSLLHTETTEKGCVLLSYLNETVTVSASLESVRGNRSLFTDLEAENDVLHCVAFAVPKSSSNEEVMFLTVQVKGPTQEFKKRTTVMVKNEDSLVFVQTDKSIYKPGQTVKFRVVSMDENFHPLNELIPLVYIQDPKGNRIAQWQSFQLEGGLKQFSFPLSSEPFQGSYKVVVQKKSGGRTEHPFTVEEFVLPKFEVQVTVPKIITILEEEMNVSVCGLYTYGKPVPGHVTVSICRKYSDASDCHGEDSQAFCEKFSGQLNSHGCFYQQVKTKVFQLKRKEYEMKLHTEAQIQEEGTVVELTGRQSSEITRTITKLSFVKVDSHFRQGIPFFGQVRLVDGKGVPIPNKVIFIRGNEANYYSNATTDEHGLVQFSINTTNVMGTSLTVRVNYKDRSPCYGYQWVSEEHEEAHHTAYLVFSPSKSFVHLEPMSHELPCGHTQTVQAHYILNGGTLLGLKKLSFYYLIMAKGGIVRTGTHGLLVKQEDMKGHFSISIPVKSDIAPVARLLIYAVLPTGDVIGDSAKYDVENCLANKVDLSFSPSQSLPASHAHLRVTAAPQSVCALRAVDQSVLLMKPDAELSASSVYNLLPEKDLTGFPGPLNDQDDEDCINRHNVYINGITYTPVSSTNEKDMYSFLEDMGLKAFTNSKIRKPKMCPQLEHGPEFRGVTRYLTAIPENFYGVSELEGRGSSEDLVVQIVEEPHTKLRKYFPETWIWDLVVVNSAGVAEVGVTVPDTITEWKAGAFCLSEDAGLGISSTASLRAFQPFFVELTMPYSVIRGEAFTLKATVLNYLPKCIRVSVQLEASPAFLAVPVEKEQAPHCICANGRQTVSWAVTPKSLGNVNFTVSAEALESQELCGTEVPSVPEHGRKDTVIKPLLVEPEGLEKETTFNSLLCPSGGEVSEELSLKLPPNVVEESARASVSVLGDILGSAMQNTQNLLQMPYGCGEQNMVLFAPNIYVLDYLNETQQLTPEIKSKAIGYLNTGYQRQLNYKHYDGSYSTFGERYGRNQGNTWLTAFVLKTFAQARAYIFIDEAHITQALIWLSQRQKDNGCFRSSGSLLNNAIKGGVEDEVTLSAYITIALLEIPLTVTHPVVRNALFCLESAWKTAQEGDHGSHVYTKALLAYAFALAGNQDKRKEVLKSLNEEAVKKDNSVHWERPQKPKAPVGHFYEPQAPSAEVEMTSYVLLAYLTAQPAPTSEDLTSATNIVKWITKQQNAQGGFSSTQDTVVALHALSKYGAATFTRTGKAAQVTIQSSGTFSSKFQVDNNNRLLLQQVSLPELPGEYSMKVTGEGCVYLQTSLKYNILPEKEEFPFALGVQTLPQTCDEPKAHTSFQISLSVSYTGSRSASNMAIVDVKMVSGFIPLKPTVKMLERSNHVSRTEVSSNHVLIYLDKVSNQTLSLFFTVLQDVPVRDLKPAIVKVYDYYETDEFAIAEYNAPCSKDLGNADYKDDDDKGASHHHHHH
154 % of WT | 91 % of WT | 82 % of WT | 117 % of WT | 58 % of WT | 53 % of WT | 38 % of WT | 86 % of WT | 83 % of WT | 102 % of WT | Variant A2M, bait region SEQ ID NO 18 (other) SVSGKPQYMVLVPSLLHTETTEKGCVLLSYLNETVTVSASLESVRGNRSLFTDLEAENDVLHCVAFAVPKSSSNEEVMFLTVQVKGPTQEFKKRTTVMVKNEDSLVFVQTDKSIYKPGQTVKFRVVSMDENFHPLNELIPLVYIQDPKGNRIAQWQSFQLEGGLKQFSFPLSSEPFQGSYKVVVQKKSGGRTEHPFTVEEFVLPKFEVQVTVPKIITILEEEMNVSVCGLYTYGKPVPGHVTVSICRKYSDASDCHGEDSQAFCEKFSGQLNSHGCFYQQVKTKVFQLKRKEYEMKLHTEAQIQEEGTVVELTGRQSSEITRTITKLSFVKVDSHFRQGIPFFGQVRLVDGKGVPIPNKVIFIRGNEANYYSNATTDEHGLVQFSINTTNVMGTSLTVRVNYKDRSPCYGYQWVSEEHEEAHHTAYLVFSPSKSFVHLEPMSHELPCGHTQTVQAHYILNGGTLLGLKKLSFYYLIMAKGGIVRTGTHGLLVKQEDMKGHFSISIPVKSDIAPVARLLIYAVLPTGDVIGDSAKYDVENCLANKVDLSFSPSQSLPASHAHLRVTAAPQSVCALRAVDQSVLLMKPDAELSASSVYNLLPEKDLTGFPGPLNDQDDEDCINRHNVYINGITYTPVSSTNEKDMYSFLEDMGLKAFTNSKIRKPKMCPQLEHGPIPENFYGLEGEGEGEGEAIPMSIPRYLTAEFRGVTVEEPHTKLRKYFPETWIWDLVVVNSAGVAEVGVTVPDTITEWKAGAFCLSEDAGLGISSTASLRAFQPFFVELTMPYSVIRGEAFTLKATVLNYLPKCIRVSVQLEASPAFLAVPVEKEQAPHCICANGRQTVSWAVTPKSLGNVNFTVSAEALESQELCGTEVPSVPEHGRKDTVIKPLLVEPEGLEKETTFNSLLCPSGGEVSEELSLKLPPNVVEESARASVSVLGDILGSAMQNTQNLLQMPYGCGEQNMVLFAPNIYVLDYLNETQQLTPEIKSKAIGYLNTGYQRQLNYKHYDGSYSTFGERYGRNQGNTWLTAFVLKTFAQARAYIFIDEAHITQALIWLSQRQKDNGCFRSSGSLLNNAIKGGVEDEVTLSAYITIALLEIPLTVTHPVVRNALFCLESAWKTAQEGDHGSHVYTKALLAYAFALAGNQDKRKEVLKSLNEEAVKKDNSVHWERPQKPKAPVGHFYEPQAPSAEVEMTSYVLLAYLTAQPAPTSEDLTSATNIVKWITKQQNAQGGFSSTQDTVVALHALSKYGAATFTRTGKAAQVTIQSSGTFSSKFQVDNNNRLLLQQVSLPELPGEYSMKVTGEGCVYLQTSLKYNILPEKEEFPFALGVQTLPQTCDEPKAHTSFQISLSVSYTGSRSASNMAIVDVKMVSGFIPLKPTVKMLERSNHVSRTEVSSNHVLIYLDKVSNQTLSLFFTVLQDVPVRDLKPAIVKVYDYYETDEFAIAEYNAPCSKDLGNADYKDDDDKGASHHHHHH
